Tested on: hnRNP A1
Experiment: Immunoprecipitation/WB of hnRNP A1-Flag from HeLa cells with PARG added to the IP system
Type: biochemical, human
Description: The steps of HeLa cell culture and plasmid transfection are as described in Example 1. To increase the level of PARylation in HeLa cells after transfection with the plasmids described in 3.1.1, the cell culture medium was removed before collection, 500 μM hydrogen peroxide (diluted in PBS) was added to the cells followed by incubating for 10 min at 37° C. The stimulated HeLa cells can be used for subsequent experiments.
Cells treated according to 3.1.2 were lysed with the following lysis buffer: 25 mM Tris-HCl pH 7.4, 150 mM NaCl, 1% NP-40, 1 mM EDTA, 5% glycerol, protease inhibitor (Roche), 20 μM Olaparib (Selleck) and 8 μM ADP-HPD (Millopore). For enrichment of TDP-43 with HA tag, the lysate was added with HA antibody (Mouse anti-HA (Proteintech)) for overnight incubation at 4° C. followed by enrichment of primary antibody-sample complexes with Dynabeads® Protein G beads (Novex) for 2 hours at room temperature; for Flag-tagged hnRNP Al, the lysate was added directly to anti-FLAG® M2 Affinity Gel (Sigma) followed by incubation at 4° C. To ablate the polyribose moiety in vitro, 1μ purified PARG protein (Sigma) was added to a mixture of anti-FLAG® M2 Affinity Gel (Sigma) and cell lysate, and incubated for 1 h at 37° C. After incubation, the product was washed 3-5 times with lysis buffer, and added with 4×LDS sample buffer (Invitrogen) and boiled at 95° C. for subsequent studies. […]

B1: PARG protein: purified PARG protein (Sigma), poly(ADP-ribose) glycohydrolase (protein, UniProt Q86W56 1-976, looked up)
Poly(ADP-ribose) …: MNAGPGCEPCTKRPRWGAATTSPAASDARSFPSRQRRVLDPKDAHVQFRVPPSSPACVPGRAGQHRGSATSLVFKQKTITSWMDTKGIKTAESESLDSKENNNTRIESMMSSVQKDNFYQHNVEKLENVSQLSLDKSPTEKSTQYLNQHQTAAMCKWQNEGKHTEQLLESEPQTVTLVPEQFSNANIDRSPQNDDHSDTDSEENRDNQQFLTTVKLANAKQTTEDEQAREAKSHQKCSKSCDPGEDCASCQQDEIDVVPESPLSDVGSEDVGTGPKNDNKLTRQESCLGNSPPFEKESEPESPMDVDNSKNSCQDSEADEETSPGFDEQEDGSSSQTANKPSRFQARDADIEFRKRYSTKGGEVRLHFQFEGGESRTGMNDLNAKLPGNISSLNVECRNSKQHGKKDSKITDHFMRLPKAEDRRKEQWETKHQRTERKIPKYVPPHLSPDKKWLGTPIEEMRRMPRCGIRLPLLRPSANHTVTIRVDLLRAGEVPKPFPTHYKDLWDNKHVKMPCSEQNLYPVEDENGERTAGSRWELIQTALLNKFTRPQNLKDAILKYNVAYSKKWDFTALIDFWDKVLEEAEAQHLYQSILPDMVKIALCLPNICTQPIPLLKQKMNHSITMSQEQIASLLANAFFCTFPRRNAKMKSEYSSYPDINFNRLFEGRSSRKPEKLKTLFCYFRRVTEKKPTGLVTFTRQSLEDFPEWERCEKPLTRLHVTYEGTIEENGQGMLQVDFANRFVGGGVTSAGLVQEEIRFLINPELIISRLFTEVLDHNECLIITGTEQYSEYTGYAETYRWSRSHEDGSERDDWQRRCTEIVAIDALHFRRYLDQFVPEKMRRELNKAYCGFLRPGVSSENLSAVATGNWGCGAFGGDARLKALIQILAAAAAERDVVYFTFGDSELMRDIYSMHIFLTERKLTVGDVYKLLLRYYNEECRNCSTPGPDIKLYPFIYHAVESCAETADHSGQRTGT
Added to the IP system
  amount of endogenous TDP-43 protein co-precipitated with hnRNP A1: significantly reduced
Hydrogen peroxide-stimulated HeLa, added to the IP system for 1 h
  PARylation level of hnRNP A1 itself and PARylated proteins that interact with it: significantly reduced

— patent US20220110936A1, “PHARMACEUTICAL COMPOSITION FOR TREATMENT OF NEURODEGENERATIVE DISEASES OR DISEASES CAUSED BY ABNORMALITY OF RNA BINDING PROTEIN AND APPLICATIONS THEREOF” (Shanghai Institute of Organic Chemistry, Chinese Academy of …, priority 2019, published 2022)
